# Experiment: yeast display, Sf9 membrane polyspecificity reagent, FACS + sequencing; frameworks hold sequencing errors
# Summary of the method: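 Genes from sorted yeast were amplified by colony PCR, read by MiSeq 2 × 250 sequencing and filtered on CDR length. These cells carried a synthetic nanobody library in Saccharomyces cerevisiae BJ5465 and were sorted by FACS into low and high (top ~1%) gates on anti-HA and streptavidin fluorescence. Polyreactivity is labelled according to the gate of origin.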
row,Sequence,polyreactivity (PSR sort gate)
1,QVQLVESGGGLVQAGGSLRLSCAASGRTFYRYAMGWYRQAPGKERELVAAISTSGSTTYADSVKGRFTISRDNAKNTVYLQMISLKPEDTAVYYCNAVYYYRPDWRQSNLSQYGYWGQGTQVTVSS,high polyreactivity
2,QVQLVESGGGLVQAGGSLRLSCAASGRTFYRYAMGWYRQAPGKERELVATISSSGRTYYADSVKGRFTISRDNAKNTVYLQMNSLKPEDTAVYYCRFTIKHGSWGQGTQVTVSS,high polyreactivity
3,QVQLVESGGGLVQAGGSLRLSCAASGRTFYRYAMGWYRQAPWKERELVAAITKRGSGTYYADSVKGRFTISRDNAKNTVYLQMNSLKPEDTAVYYCATDGYIRPSRPAPTQPTFNYWGQGSQVTVSS,high polyreactivity
4,QVQLVESGGGLVQAGGSLRLSCAASGRTFYRYVMGWYRQAPGKERELVAAITPGGSTYADSVKGRFTISRDNAKNTVYLQMNSLKPEDTAVYYCNAKVGAYLNYGYWGQGTQVTVSS,low polyreactivity
5,QVQLVESGGGLVQAGGSLRLSCAASGRTFYSNVMGWYIQAPGQERELVASISRGGNTYYADSVKGRFTISRDNAKIPFYLQMNSLKPEDTAVYYCAARQYHSRDFDYWGQGTQVTVSS,low polyreactivity
6,QVQLVESGGGLVQAGGSLRLSCAASGRTFYSYAMGWYRPAPGKERELVAAINTSGGRTHYADSVKGRFTISRDNGKNTVYLQMNSLKPEDTAVYYCAAEVFRTRTWEYYYWGQGTQVTVSS,high polyreactivity
7,QVQLVESGGGLVQAGGSLRLSCAASGRTFYSYAMGWYRQAPGKERELVAAINTSGGRTHYADSVKGRFTISRDNAKNTVYLQMNSLKPEDTAVYYCAAEVFRTRTWEYYYWGQGTQVTVSS,high polyreactivity
8,QVQLVESGGGLVQAGGSLRLSCAASGRTFYSYAMGWYRQAPGKERELVAGITWSGTSTYYADSVKGRFTISRDNAKNTVYLQMNSLKPEDTAVYYCAADSIQYTARPYDYWGQGTQVTVSS,low polyreactivity
9,QVQLVESGGGLVQAGGSLRLSCAASGRTFYSYSMGWYRQEPGQERELVALITWSGGTYYADSVKGRFTISRDNANNTVYLLMNSLKPEDTAVYYCNKYRPYGRIFHRAYGRDYWGQGTQVTVSS,high polyreactivity
10,QVQLVESGGGLVQAGGSLRLSCAASGRTFYSYTMGWYRQAPGKDRELVAAITRSGGRTYYADSVKGRFTISRDNAKNTVYLQMNSLKPDDTAVYYCAKGWVSYWRYKNEYWGQGTQVTVSS,high polyreactivity
11,QVQLVESGGGLVQAGGSLRLSCAASGRTFYSYTMGWYRQAPGKERELVAAINRGGSTYYADSVKGRFTISRDNAKNTVYLQMNSLKPEDTAVYYCNVDWKVYGAPDYRIAWKYDYWGQGTQVTVSS,low polyreactivity
12,QVQLVESGGGLVQAGGSLRLSCAASGRTFYSYVMGWYRQAPGKERELVAAINKTGGGTYYADSVKGRFTISRDNAKNTVYLQMNSLKPEDTAVYYCAAETGTGETRYYRYWDYYYWGQGTQVTVSS,high polyreactivity
13,QVQLVESGGGLVQAGGSLRLSCAASGRTFYTNALGWYRQAPGKERELVAVISRGGTTYYADSVKGRFTISRDNAKNTVYLQMNSLKPEDTAVYYCAKQRPSGDSSSQMGSWGQGTQVTVSS,low polyreactivity
14,QVQLVESGGGLVQAGGSLRLSCAASGRTFYTNAMGWYRQAPGKERELVAAITRGGSTYYADSVKGRFTIPRDNAKNTVYLQMYSLKPEDTAVYYCAAAYASSWRQRVTSEKGYYWGQGTQVTVSS,high polyreactivity
15,QVQLVESGGGLVQAGGSLRLSCAASGRTFYTNAMGWYRQAPGKERELVAVISRGGTTYYADSVKGRFTISRDNAKNTVYLQMNSLKPEDTAVYYCAKQRPSGESSSQMGSWGQGTQVTVSS,low polyreactivity
16,QVQLVESGGGLVQAGGSLRLSCAASGRTFYTYAMGWYRPAPGKERELVASISSGGNTNYADSVKGRFTISRDNAKNTVYLQMNSLKPEDTAVYYCAASYLKRRGYWGQGTQVTVSS,low polyreactivity
17,QVQLVESGGGLVQAGGSLRLSCAASGRTFYTYAMGWYRQAPGKDREFVAVISGRGARTYYADSVKGRFTISRDNAKNTVYLQMNSLKPEDTAVYYCAAVPPRKDYQHMDYWGQGTQVTVSS,low polyreactivity
18,QVQLVESGGGLVQAGGSLRLSCAASGRTFYTYAMGWYRQAPGKERELVAAITRRGGSTFYADSVKGRFTISRDNAKNTVYLQMNSLKPEDTAVYYCAARSTVGPQYGVRFNYWGQGTQVTVSS,high polyreactivity
19,QVQLVESGGGLVQAGGSLRLSCAASGRTFYTYAMGWYRQAPGNERELVATISSGGGRTYYADSVKGRFTISPDNAKKTVYLQRNSLNPEDTAVYYCAADKWENRYHAVSDTRPRDYWGQGTQVTVSS,low polyreactivity
20,QVQLVESGGGLVQAGGSLRLSCAASGRTFYVNAMGWYRQAPGKERELVARISSSGITYYADSVKGRFTISRDNAKNSVSLQMNSLKPEDTAVYYCAAGPWFYYWGLGTQVTVSS,low polyreactivity
21,QVQLVESGGGLVQAGGSLRLSCAASGRTFYVNAMGWYRQAPGKERELVARITSGGSTYYADSVKGRFTISRDKAKNTVYLQMNSVKPEDTAVYYCAADYVSLSVFSYWAWYDYWGQGTQVTVSS,low polyreactivity
22,QVQLVESGGGLVQAGGSLRLSCAASGRTFYVNDMGWYRQAPGKERELVAAISYRGGSTYYADSVKGRFTISRDNAKNTVYLQMNSLKPEDTAVYYCAAELTYRYRFYYLYSMYYWGQGTQVTVSS,low polyreactivity

row,Sequence,polyreactivity (PSR sort gate)
1,QVQLVESGGGLVQAGGSLRLSCAASGRTFYVNTMGWYRPAPGKEREFVAAITWRDGSTYYADSVKGRFTISRDNAKNTVYPQMNSLKPEDTAVYYCAARNSHDGYYDEYYYWGQGTQVTVSS,low polyreactivity
2,QVQLVESGGGLVQAGGSLRLSCAASGRTFYVYAMGWYRQAPGKERELVAAIDFSSTSTYADSVKGRFTISRDNAKNTVYLQMNSLKPEDTAVYYCNVDPDLGGFDYWGQGTQVTVSS,low polyreactivity
3,QVQLVESGGGLVQAGGSLRLSCAASGRTFYVYAMGWYRQAPGKERELVAAISQDDGGTYYADSVKGRFTISRDNAKNTVYLQMNSLKPEDTAVYYCAAKEWRYGYDYGYWGQGTQVTVSS,low polyreactivity
4,QVQLVESGGGLVQAGGSLRLSCAASGRTFYVYDMGWYRQAPGKERELVAVISSSGSTNYADSVKGRFTISRDNAKNTVYLQMNSLKPEDTAVYYCNRRRWYFFSLDYWGQGTQVTVSS,high polyreactivity
5,QVQLVESGGGLVQAGGSLRLSCAASGRTFYVYVMGWYRQAPGKEREFVAAINYGSTYYADSVKGRFTISRDNAKNTVYLQMNSLIPEDTAVYYLGQGTQVTVSS,low polyreactivity
6,QVQLVESGGGLVQAGGSLRLSCAASGRTFYWYAMGWYRQAPGKERELVAGISSGGGTYYADSVKGRFTISRDNAKNTVYLQMNSLKPEDTAVYYCAAAWENIWVWQEYIEYDYWGQGTQVTVSS,low polyreactivity
7,QVQLVESGGGLVQAGGSLRLSCAASGRTFYWYTMGWYRQAPGKERELVAAISTRGVRTYYADSVKGRFTISRDNAKNTVYLQMNSLKPEDTAVYYGNDEYNPPYYTSHDDSDYWGQGTHVTVSS,low polyreactivity
8,QVQLVESGGGLVQAGGSLRLSCAASGRTFYYNAMGWSRQAPGKEREFVARITRSGTNTYYADSVKGRFTISRDNAKNTVYLQMNSLKPEDTAVYYCARRGTSSYRRYWLDSASNMDYWGQGTQVTVSS,high polyreactivity
9,QVQLVESGGGLVQAGGSLRLSCAASGRTFYYNAMGWYRQAPGKERELVAAISWSGGRTYYADSVKGRFTISRDNAKNTVYLQMNSLKPEDTAVYYCAATGFYSSHYHLDYWGQGTQVTVSS,high polyreactivity
10,QVQLVESGGGLVQAGGSLRLSCAASGRTFYYNAMGWYRQAPGKERELVAAITSAGSTNYADSVKGRFTISRDNAKNTVYLQMNSLKPEDTAVYYCAARYFYRSAWGTFVKNDSWGQGTQVTVSS,high polyreactivity
11,QVQLVESGGGLVQAGGSLRLSCAASGRTFYYNGMGWYRQAPGKERELVAAITSGGTTSYADSVKGRFTISRDNAKNTVYLQRNSLKPEDTAVYYCNADYWAVNYDYWGQATQVTVSS,low polyreactivity
12,QVQLVESGGGLVQAGGSLRLSCAASGRTFYYNTMGWYRQAPGKERELVAAITSRGSTYADSVKGRFTISRDNAKNTVYLQMNSLKPEDTAVYYCAAVWRYGSWYSGRLYEYWGQGTQVTVSS,high polyreactivity
13,QVQLVESGGGLVQAGGSLRLSCAASGRTFYYNTMGWYRQAPGKERELVASITSGSSTYYADSVKGRFTISRDNAKNTVYLQMNSLKPEDTAVYYCAVYRRYSVKYHYGYWGQGTQVTVSS,high polyreactivity
14,QVQLVESGGGLVQAGGSLRLSCAASGRTFYYNTMGWYRQAPWKEWELVAAISWRTGSTYYADSVKGRFSISRDNAKNTVYLQMKSLKPEDTAVYYCAAVLFGYPRTIGTWYDRYYYWGQGTQVTVSS,high polyreactivity
15,QVQLVESGGGLVQAGGSLRLSCAASGRTFYYSMGWYRQAPGKERYADSVKGRFTISRDNAKNTVYLQMNSLKPEDTAVYYCSAKVPEPPSLDESDYWGQGTQVTVSS,low polyreactivity
16,QVQLVESGGGLVQAGGSLRLSCAASGRTFYYYAMGWYRQAPGKERELVAAITSGGSTKYADSVKGRFTISRDNAKNTVYLQMNSLKPEDTAVYYCAKRYFSSSRYYYWGQGTQVTVSS,high polyreactivity
17,QVQLVESGGGLVQAGGSLRLSCAASGRTFYYYAMGWYRQAPGKERELVASISRRGGSTYYADSVKGRFTISRDNAKNTVYLQMNSLKPEDTAVYYCAASHYHGYSRMDYWGQGTQVTVSS,high polyreactivity
18,QVQLVESGGGLVQAGGSLRLSCAASGRTFYYYAMGWYRQAPGKERELVASISSSGRTYYADSVKGRFTISRDNAKNTVYLQMNSLKPEDTAVYYCAKVWSSSYYRYGYWGQGTQVTVSS,high polyreactivity
19,QVQLVESGGGLVQAGGSLRLSCAASGRTFYYYAMGWYRQAPGKEREMVATISGGSSTNYADSVKWRFTISRDNAKNTVYLQMNSLKPEDTAVFYCAARWWRGGGYRPNYYKLKYDYWGQGTQVTVSS,high polyreactivity
20,QVQLVESGGGLVQAGGSLRLSCAASGRTFYYYDMGWYRQAPGKERELVAAISASGGSTYYADSVKGRFTISRDNAKNTVYLPMNSLKPDDTAVYYCAATLYHYWYSDFDYWGQGTQVTVSS,high polyreactivity
21,QVQLVESGGGLVQAGGSLRLSCAASGRTFYYYGMGWYRQAPGKERELVATISWSGGSTYYADSVKGRFTISRDNAKNTVYLQMNSLKPEDTAVYYSAADGQFLYDHIEVDYWGQATQVTVSS,low polyreactivity

# Reference: the nanobody polyreactivity screen of Harvey et al. (2022)
